Legend:
[1] = target: klc2_human KLC2 (UniProt Q9H0B6)
[2] = target: mon2_human MON2 (UniProt Q7Z3U7)
mon2_human MON2, sequence (Q7Z3U7 whole entry): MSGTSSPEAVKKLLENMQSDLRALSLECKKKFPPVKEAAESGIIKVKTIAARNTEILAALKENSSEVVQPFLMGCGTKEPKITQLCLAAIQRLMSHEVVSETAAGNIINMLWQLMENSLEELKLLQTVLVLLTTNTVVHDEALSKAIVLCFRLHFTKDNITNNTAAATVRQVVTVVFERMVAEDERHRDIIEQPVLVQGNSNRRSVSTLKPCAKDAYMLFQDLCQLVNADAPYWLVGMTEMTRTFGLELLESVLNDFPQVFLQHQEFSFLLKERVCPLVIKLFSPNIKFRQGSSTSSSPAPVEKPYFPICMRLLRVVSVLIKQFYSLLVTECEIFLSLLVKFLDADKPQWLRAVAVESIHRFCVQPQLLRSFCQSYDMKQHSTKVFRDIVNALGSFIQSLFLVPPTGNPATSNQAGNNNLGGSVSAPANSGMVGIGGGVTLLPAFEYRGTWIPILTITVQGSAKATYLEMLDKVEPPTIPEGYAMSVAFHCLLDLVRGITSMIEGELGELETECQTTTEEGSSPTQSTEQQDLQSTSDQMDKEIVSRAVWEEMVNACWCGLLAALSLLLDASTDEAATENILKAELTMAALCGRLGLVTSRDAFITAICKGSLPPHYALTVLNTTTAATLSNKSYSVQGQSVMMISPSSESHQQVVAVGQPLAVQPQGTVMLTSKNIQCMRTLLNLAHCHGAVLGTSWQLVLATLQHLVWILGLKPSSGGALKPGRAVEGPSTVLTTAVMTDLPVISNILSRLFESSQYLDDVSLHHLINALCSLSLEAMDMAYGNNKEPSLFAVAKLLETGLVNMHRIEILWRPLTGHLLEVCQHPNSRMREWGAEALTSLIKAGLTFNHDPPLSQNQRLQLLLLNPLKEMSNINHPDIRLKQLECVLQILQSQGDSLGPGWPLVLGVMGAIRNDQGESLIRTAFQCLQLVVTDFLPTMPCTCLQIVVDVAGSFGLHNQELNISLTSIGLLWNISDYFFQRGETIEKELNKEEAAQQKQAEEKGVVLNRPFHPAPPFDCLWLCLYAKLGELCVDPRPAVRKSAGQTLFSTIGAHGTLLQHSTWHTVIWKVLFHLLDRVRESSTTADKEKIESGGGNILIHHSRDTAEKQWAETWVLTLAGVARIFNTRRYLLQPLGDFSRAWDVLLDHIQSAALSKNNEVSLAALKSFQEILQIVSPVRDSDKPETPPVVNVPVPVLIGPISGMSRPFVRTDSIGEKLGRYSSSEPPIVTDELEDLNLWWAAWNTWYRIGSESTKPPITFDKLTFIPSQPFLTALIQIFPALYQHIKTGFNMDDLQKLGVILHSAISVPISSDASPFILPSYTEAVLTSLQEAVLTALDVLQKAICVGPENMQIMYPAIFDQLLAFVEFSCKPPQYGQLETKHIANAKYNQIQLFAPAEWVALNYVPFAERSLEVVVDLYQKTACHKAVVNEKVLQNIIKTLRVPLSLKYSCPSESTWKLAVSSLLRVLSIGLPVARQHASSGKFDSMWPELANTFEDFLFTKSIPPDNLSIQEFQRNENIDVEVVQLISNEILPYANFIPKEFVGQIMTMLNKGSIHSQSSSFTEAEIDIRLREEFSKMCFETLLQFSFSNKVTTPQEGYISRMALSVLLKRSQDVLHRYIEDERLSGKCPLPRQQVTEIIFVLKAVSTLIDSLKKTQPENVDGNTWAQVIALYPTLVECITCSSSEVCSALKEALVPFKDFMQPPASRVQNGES

klc2_human KLC2, sequence (Q9H0B6 whole entry): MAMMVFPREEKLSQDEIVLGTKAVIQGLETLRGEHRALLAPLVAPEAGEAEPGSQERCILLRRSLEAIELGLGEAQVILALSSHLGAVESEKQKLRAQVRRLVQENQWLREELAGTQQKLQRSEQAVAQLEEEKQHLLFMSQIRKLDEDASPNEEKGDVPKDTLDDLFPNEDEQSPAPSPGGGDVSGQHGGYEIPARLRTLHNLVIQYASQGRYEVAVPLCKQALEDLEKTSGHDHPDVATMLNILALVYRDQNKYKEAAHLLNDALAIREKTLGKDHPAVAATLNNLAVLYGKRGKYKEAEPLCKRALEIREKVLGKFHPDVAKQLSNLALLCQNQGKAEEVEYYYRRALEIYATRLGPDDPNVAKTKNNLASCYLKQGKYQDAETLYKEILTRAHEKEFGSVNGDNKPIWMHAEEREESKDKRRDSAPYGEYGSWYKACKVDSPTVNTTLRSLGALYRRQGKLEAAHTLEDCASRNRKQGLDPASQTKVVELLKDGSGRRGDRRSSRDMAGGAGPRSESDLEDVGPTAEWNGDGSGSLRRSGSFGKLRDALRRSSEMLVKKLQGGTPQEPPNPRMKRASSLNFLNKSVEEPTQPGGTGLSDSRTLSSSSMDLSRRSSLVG

Substance	effect of a mutation on the interaction [1]	effect of a mutation on the interaction [2]
Protein DOP1A (Homo sapiens), Q5JWR5 W186A	disrupting interaction strength	
Protein DOP1A (Homo sapiens), Q5JWR5 L2178A;K2179A;R2180A;L2181A		with no effect
Protein DOP1A (Homo sapiens), Q5JWR5 W34A	disrupting interaction strength	
